Assay results from paper PMC9943651.

Legend:
[1] = target: AnxA2 mutant #3 K115A;K119A;R205A;K206A (Homo sapiens) (UniProt P07355); experiment: fluorescence anisotropy; settings: full PS DNA; no 2' modification; 20 mM HEPES pH 7.0, 100 mM NaCl, 1 mM DTT, with 1 mM CaCl2, MgCl2 or EGTA; 50 nM labelled oligo, 0-120 uM protein; temperature not stated
[2] = target: Annexin A2 CTD (AnxA2) (Homo sapiens) (UniProt P07355); experiment: fluorescence anisotropy; settings: 20 mM HEPES pH 7.0, 100 mM NaCl, 1 mM DTT, with 1 mM CaCl2, MgCl2 or EGTA, 50 nM labelled oligo, 0-120 uM protein, temperature not stated
Sequence of Annexin A2 CTD (AnxA2) (Homo sapiens) (P07355 34-339): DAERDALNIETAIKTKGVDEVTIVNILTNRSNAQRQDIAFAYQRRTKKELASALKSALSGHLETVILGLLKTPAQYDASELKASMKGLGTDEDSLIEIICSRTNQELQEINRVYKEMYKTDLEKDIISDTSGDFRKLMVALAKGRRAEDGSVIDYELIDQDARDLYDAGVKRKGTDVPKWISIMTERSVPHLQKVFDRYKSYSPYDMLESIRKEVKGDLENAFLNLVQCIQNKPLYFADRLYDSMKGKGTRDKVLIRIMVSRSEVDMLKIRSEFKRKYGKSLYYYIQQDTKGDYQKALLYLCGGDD

Sequence of AnxA2 mutant #3 K115A;K119A;R205A;K206A (Homo sapiens) (P07355 34-339 K115A/K119A/R205A/K206A): as the sequence (P07355 34-339) above, with K82A, K86A, R172A, K173A counted along it

Sequence: CTGCTAGCCTCTGGATTTGA [PTEN PS, labelled]
- binding signal (fold weaker than wild type) [1]: 7
- Kd ([2]; full PS DNA, no 2' modification): 5 µM

Sequence: GCCAGGCTGGTTATG [5-10 MALAT PS, labelled]
- Kd ([2]; full PS, 5 nt 2'-MOE 5' wing + 10 nt DNA, 5-methyl-C): 9.3 µM

Sequence: GCCAGGCTGGTTATGACTCA [5-10-5 MALAT PS, labelled]
- Kd ([2]; full PS, 5-10-5 2'-MOE gapmer, 5-methyl-C): 6.3 µM

Sequence: TTTTTTTTTTTTTTTTTTTG [T19G PS, labelled]
- Kd ([2]; full PS DNA): 8.2 µM
